Experimental data published in US20180030119A1.

Assays:
Assay in all cases: cell-based or functional assay
[1] = target: 26 RSV/B isolates (F protein on virus)
[2] = target: 42 RSV/A isolates (F protein on virus)
[3] = substrate: F protein of palivizumab-resistant clinical RSV isolate #20, on virus (RSV clinical isolate #20), P11209

B1: AR201 (antibody, V domains shown)
VH: LVQLRESGPGLVKPSQTLSLTCSVSGASINLYDYFWGWIRQAPGRGPEWIGYISGSTYYNPSLKRRATISVDTSKSQFFLELTSVTAADTAVYYCARDVGWGPQYYYGLDVWGQGTTVTVSS
VL: DLVLTQSPGTLSLSPGERATLSCRASHSVQSTSLAWYQQKRGQAPRLLIYGGSSRVTGIPDRFSGSGSGTDFTLTISRLEPEDFAVYYCQQSDRSPPITFGQGTRLEMK
In the case of B1, the Log10 PFU/0.2 mL after 20 ug/ml antibody, plaque reduction assay on HEp-2 cells, mean (Log10 PFU/0.2 mL) [1] is reported as -0.52, the Log10 PFU/0.2 mL after 20 ug/ml antibody, plaque reduction assay on HEp-2 cells, median (Log10 PFU/0.2 mL) [1] is reported as -0.6 and the Log10 PFU/0.2 mL after 20 ug/ml antibody, plaque reduction assay on HEp-2 cells, mean (Log10 PFU/0.2 mL) [2] is reported as -0.42. The Log10 PFU/0.2 mL after 20 ug/ml antibody, plaque reduction assay on HEp-2 cells, median (Log10 PFU/0.2 mL) [2] was -0.6 and the IC50 of neutralisation, infectivity assay on Hep2 cells [3] was 1710 nM.
